Data as given in the supplement of paper PMC9170038.

Test system: MS2 coat protein
Assay: apparent KD of MS2 coat protein; higher = weaker reporter binding
Conditions: Eterna round: R107
Procedure, shortened: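 Designed RNA switches were transcribed on-chip from Illumina sequencing clusters. They were then titrated with SNAP-549-labelled MS2 coat protein (twofold steps, 0.7 or 1.5 nM to 3 µM; 0.8–1.5 h to 10–20 min per step) in 100 mM Tris-HCl pH 7.5, 80 mM KCl, 4 mM MgCl2, without or with constant ligand. Apparent KD is the per-design median of normalised cluster binding-curve fits.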

[1] = input ligand: theophylline 20 uM
[2] = input ligand: theophylline 2 mM
[3] = input ligand: tryptophan 2.4 mM

Sequence | apparent KD of MS2 coat protein (input ligand: arginine 13.2 mM) | apparent KD of MS2 coat protein (input ligand: none) | apparent KD of MS2 coat protein [1] | apparent KD of MS2 coat protein [2] | apparent KD of MS2 coat protein [3]
CUAUAUAGAAAACUAUAUAGAGUGGGUGAACGAGGACCGGUACGGCCGCCACUCGGACAUGAGGAUCACCCAUGUCCAUGUGAAA [AstrosExyTryA#25] | 13.1 nM | 14.8 nM | 13 nM | 25 nM | 29.4 nM
CUAUAUGGAAACAUAUAGACGCAAAAGCGACGAGGACCGGUACGGCCGCCACUCGAAGAGUGGUGGACAUGAGGAUCACCCAUGU [Design 3 MOD] | 38.3 nM | 54.6 nM | 73.1 nM | 58.9 nM | 58.5 nM
CUAUGCAGGUCGGCCGCCACUACACACAUGAGGAUCACCCAUGUAGUUACUGGGUGAAGUGGCAGUAGGACCGGGACCUGCACAC [Brourdmod18] | 150 nM | 436 nM | 458 nM | 619 nM | 431 nM
CUCAUCCACGCGGCCGCCACUAUUUUUAGGUGUGGGUGUGACGUAUUACAUGAGGAUCACCCAUGUAGGACCGGGCGUGGAUGAG [Walrus] | 117 nM | – | 414 nM | 491 nM | –
CUCCCGUGAGCGGCCGCCACUGGAGGCUUUGCGCGACAUGAGGAUCACCCAUGUGUGCCCGGCGUUAGGACCGGGUUCGCGUGAG [#1 Same State - Tryptophan B Attempt #16 (HarryS)] | 8.8 nM | 12.3 nM | 13.9 nM | 11.2 nM | 11.2 nM
CUGACGAGCUUUUUGUCAGGUUGUGUAGAUACCAGUUCUCUGGUGAACCCUUGGCAGCUAACAACAUGAGGAUCACCCAUGUGAU [theeternabot_exclusion_MS2_Theo_A_33] | 38.5 nM | – | 96.5 nM | – | 69.8 nM
CUGCCACGAACGGCCGCCACUUACAUGAGGAUCACCCAUGUGCCUGCGCACAAAGAAUGUCAAGAAAGGACCGGGUUCAAAUAGU [theeternabot_exclusion_MS2_Trp_B_41] | 43.2 nM | – | 177 nM | 132 nM | –
CUGCCAUGCAGAGAUACCAGUGAGCCCAGAACAUGAGGAUCACCCAUGUACGCCGCAGACCACCCUUGGCAGCUCUGCAUGGCAG [#$@$%] | 12.7 nM | 12.9 nM | 16.8 nM | 6.75 nM | 10.9 nM
CUGCCAUGCAGAGAUACCAGUGAGCCCAUAACAUGAGGAUCACCCAUGUACGCCGCAGACCACCCUUGGCAGCUCUGCAUGGCAG [&#$*@] | 21.7 nM | 17.4 nM | 18.4 nM | 11.4 nM | 16.6 nM
CUGCCAUGCAGAGAUACCAGUGAGCUCAUAACAUGAGGAUCACCCAUGUACGCCGCAGAUCACCCUUGGCAGCUCUGCAUGGCAG [!#*@)] | 8.21 nM | 9.18 nM | 11.5 nM | 10.1 nM | 9.83 nM
CUGCCAUGCAGAGAUACCAGUGCGCUCAGCACAUGAGGAUCACCCAUGUAGGAUGCCAAUCACCCUUGGCAGCUCUGCAUGGCAG [~`&)_] | 15.5 nM | 15.7 nM | 22.8 nM | 12.8 nM | 16.3 nM
CUGCCUGCCUCACAUGAGGAUCACCCAUGUCGAGGACCGGUACGGCCGCCACUCGUCGUCGGUAAUACAGGCAUUGAAUAAUAUA [Esgeusla] | 9.88 nM | – | 14.5 nM | 11.9 nM | –
CUGCUACAUACGGCCGCCACUUUAAACAUGAGGAUCACCCAUGUACGGAAGGGUGGUAAAUGUUAAAGGACCGGGUAUGUAGCAA [Tryp B Ex t1] | 64.4 nM | – | 296 nM | 293 nM | –
CUUAUUUGCUGAAGGAGCGCCCGAGGAGAAGACAUGAGGAUCACCCAUGUAUAUAGUAUAUGGCAGGUAGGUCGCGGUGGGUAGG [Arginine B Same State; Euphoria Solution 3] | 28.1 nM | 30 nM | 65 nM | 31.2 nM | 26.9 nM
CUUGACAUGAGGAUCACCCAUGUUGGUAAACGAGGACCGGUACGGCCGCCACUCGGUUACGUGUAGUACCGGUAAGAUCCAGGGU [Default title] | 24.8 nM | – | 42.6 nM | 39 nM | –
CUUGAGACAUGAGGAUCACCCAUGUCCGAAGGAGCGUGCGAAAGCACAGGUAGGUCGCGGACAUGAGGAUCACCCAUGUGAGCGA [EAA NP+V+V2 #7 DOUBLE] | 13.8 nM | 21.8 nM | 25.9 nM | 40.2 nM | 22 nM
CUUGGCUGUGCGGCCGCCACUGGCUCAUCCUGCAUUACAUGAGGAUCACCCAUGUUGCGGCCUCCCAGGACCGGGCAUAGCCUGA [Usesties] | 127 nM | – | 702 nM | 684 nM | –
